{"source": "the RNAGym collection of RNA variant scans (doi:10.1073/pnas.2313332121)", "parents": {"B1": {"name": "TPR t1 (parent)", "chain": "GACCAAUCUGCCCUCAGAGCUCGAGAACAUCUUCGGAUGCAGAGGAGGCAGGCUUCGGUGGCGCGAUAGCGCCAACGUCCUCAACCUCCAAUGCAUCCCACCACAUGAUGAUGCCUGAAGAGCCUUGGUUUUUUG"}}, "data": [{"variants_of": "B1", "assay": "polymerase ribozyme fitness, log enrichment relative to wild type (log ratio); higher = more active; in vitro selection for triplet polymerase activity", "outline": "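Mutant libraries of both subunits of a heterodimeric triplet polymerase ribozyme were PCR-built, transcribed, and selected once in triplicate, with frozen incubation at −7 °C and capture of gel-excised extended constructs on streptavidin beads before RT-PCR. Illumina sequencing of input and output libraries was filtered to genotypes with ≥10 input reads and ≥1 read per output. Fitness is the logarithm of genotype enrichment over wild-type enrichment, using inverse-variance-weighted replicate averages. The logarithm is base 2.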", "values": [{"variant": "A18C C88G G120A", "polymerase ribozyme fitness (log ratio)": -2.81}, {"variant": "C4U G42C G60U C88G C99G A111U U134A", "polymerase ribozyme fitness (log ratio)": -5.4}, {"variant": "A43U G71A C115U", "polymerase ribozyme fitness (log ratio)": -3.62}, {"variant": "A46U C101A U130G", "polymerase ribozyme fitness (log ratio)": -2.84}, {"variant": "G42U C72A A74G U96C", "polymerase ribozyme fitness (log ratio)": -3.45}, {"variant": "C11G A121C", "polymerase ribozyme fitness (log ratio)": 1.5}, {"variant": "C70G C85U A90U C104A C115A", "polymerase ribozyme fitness (log ratio)": -6.79}, {"variant": "C11G G35C G71U G110U", "polymerase ribozyme fitness (log ratio)": -7.04}, {"variant": "C11U G19A G61A U131G", "polymerase ribozyme fitness (log ratio)": -3.33}, {"variant": "C12A C56A C115U G120A C123A", "polymerase ribozyme fitness (log ratio)": -1.84}, {"variant": "U116C U129G U132C", "polymerase ribozyme fitness (log ratio)": -3.87}, {"variant": "G52U U59G C88A C101U", "polymerase ribozyme fitness (log ratio)": -1.76}, {"variant": "C82A G127A", "polymerase ribozyme fitness (log ratio)": -2.18}, {"variant": "U78C A91G G93U", "polymerase ribozyme fitness (log ratio)": -2.35}, {"variant": "A5U G61A", "polymerase ribozyme fitness (log ratio)": -0.0027}, {"variant": "C28U C124A", "polymerase ribozyme fitness (log ratio)": 0.0271}, {"variant": "C3G C72A", "polymerase ribozyme fitness (log ratio)": -1.64}, {"variant": "U7C C8G C62U G93U A95C", "polymerase ribozyme fitness (log ratio)": -0.906}, {"variant": "G48C C53A C124U G128C", "polymerase ribozyme fitness (log ratio)": -3.02}, {"variant": "G44U U112A", "polymerase ribozyme fitness (log ratio)": 0.425}, {"variant": "U7A G17U G52C C64U C123G", "polymerase ribozyme fitness (log ratio)": -1.52}, {"variant": "U9G A26U", "polymerase ribozyme fitness (log ratio)": -2.33}, {"variant": "G10C G36A G71A", "polymerase ribozyme fitness (log ratio)": -2.47}, {"variant": "A27C G120U", "polymerase ribozyme fitness (log ratio)": -4.08}, {"variant": "U130A U133A", "polymerase ribozyme fitness (log ratio)": -1.4}, {"variant": "U21A C49A G63U", "polymerase ribozyme fitness (log ratio)": -2.05}, {"variant": "G10C G63U", "polymerase ribozyme fitness (log ratio)": -2.32}, {"variant": "C64U C88G", "polymerase ribozyme fitness (log ratio)": -1.13}, {"variant": "G39U A90G C98U C102A", "polymerase ribozyme fitness (log ratio)": -4.8}, {"variant": "C13U A50U C88G U112A G117A", "polymerase ribozyme fitness (log ratio)": -2.57}, {"variant": "A100U U112G", "polymerase ribozyme fitness (log ratio)": -0.123}, {"variant": "C53A C82U C88G A118U", "polymerase ribozyme fitness (log ratio)": -0.344}, {"variant": "G36A C49A C56G C80A A90G", "polymerase ribozyme fitness (log ratio)": -4.92}, {"variant": "G57A C64U U78C U87C C104U G113A", "polymerase ribozyme fitness (log ratio)": -1.61}, {"variant": "C15A C101G C124G", "polymerase ribozyme fitness (log ratio)": 0.0121}, {"variant": "A5C G44U G77U", "polymerase ribozyme fitness (log ratio)": -2.37}, {"variant": "U78C U81C", "polymerase ribozyme fitness (log ratio)": -0.434}, {"variant": "G36U G44C C70U", "polymerase ribozyme fitness (log ratio)": -2.13}, {"variant": "U9A C72A A83U U129A", "polymerase ribozyme fitness (log ratio)": -0.91}, {"variant": "A29G C86A U112A C123G", "polymerase ribozyme fitness (log ratio)": 0.207}, {"variant": "U9G C70G", "polymerase ribozyme fitness (log ratio)": -2.02}, {"variant": "C20U C70U", "polymerase ribozyme fitness (log ratio)": -1.7}, {"variant": "U38G G47U", "polymerase ribozyme fitness (log ratio)": -3.26}, {"variant": "G39C G69A G127U", "polymerase ribozyme fitness (log ratio)": -3.35}, {"variant": "C85G U106A", "polymerase ribozyme fitness (log ratio)": -1.05}, {"variant": "G52U G120A", "polymerase ribozyme fitness (log ratio)": -0.091}, {"variant": "G60A G69U", "polymerase ribozyme fitness (log ratio)": -0.576}, {"variant": "A5G C79A C115G U125G U131A", "polymerase ribozyme fitness (log ratio)": -1.22}, {"variant": "C56G U87G A100C", "polymerase ribozyme fitness (log ratio)": -1.94}, {"variant": "G36A C72U", "polymerase ribozyme fitness (log ratio)": -1.29}, {"variant": "G69A A84U", "polymerase ribozyme fitness (log ratio)": -3.06}, {"variant": "A43C G93U", "polymerase ribozyme fitness (log ratio)": -2.59}, {"variant": "G61A G93A C97A G120U U133C", "polymerase ribozyme fitness (log ratio)": -6.04}, {"variant": "G69A C114G", "polymerase ribozyme fitness (log ratio)": -4.69}, {"variant": "G48U C56A U92A", "polymerase ribozyme fitness (log ratio)": -4.35}, {"variant": "C97G C102G A111G", "polymerase ribozyme fitness (log ratio)": -6.52}, {"variant": "C79A U112A G128U", "polymerase ribozyme fitness (log ratio)": -3.42}, {"variant": "A46U U55C A95C", "polymerase ribozyme fitness (log ratio)": -2.5}, {"variant": "U54G C72A", "polymerase ribozyme fitness (log ratio)": -1.41}, {"variant": "G35A G51A G60U C124U", "polymerase ribozyme fitness (log ratio)": -6.94}, {"variant": "C3U C40U U54C U92G", "polymerase ribozyme fitness (log ratio)": -3.03}, {"variant": "A43G A66G", "polymerase ribozyme fitness (log ratio)": -4.35}, {"variant": "C73A U78C A90C A91U U109G", "polymerase ribozyme fitness (log ratio)": -7.04}, {"variant": "A2G G57C U59G A100U U106C", "polymerase ribozyme fitness (log ratio)": -0.973}, {"variant": "C40G C82A A83C U87A A121U", "polymerase ribozyme fitness (log ratio)": -0.502}, {"variant": "C49U G51U", "polymerase ribozyme fitness (log ratio)": -5.95}, {"variant": "C22G G23A U125A G128U", "polymerase ribozyme fitness (log ratio)": -4.85}, {"variant": "C4G U9G G23A G113C", "polymerase ribozyme fitness (log ratio)": -4.79}, {"variant": "A121C G122U", "polymerase ribozyme fitness (log ratio)": 0.743}, {"variant": "C15A G71A A91G U112A G113C", "polymerase ribozyme fitness (log ratio)": -5.47}, {"variant": "C114U C124A", "polymerase ribozyme fitness (log ratio)": -1.04}, {"variant": "C104A G120U G127C", "polymerase ribozyme fitness (log ratio)": -1.76}, {"variant": "A2G C12U G47A G63U G113U", "polymerase ribozyme fitness (log ratio)": -4.51}, {"variant": "C12G G19A G93U U106A A111G C115A", "polymerase ribozyme fitness (log ratio)": -6.62}, {"variant": "A16U A37G G113A", "polymerase ribozyme fitness (log ratio)": -4.83}, {"variant": "G71A G127C", "polymerase ribozyme fitness (log ratio)": -1.54}, {"variant": "G60A C64A U112C", "polymerase ribozyme fitness (log ratio)": -6.76}, {"variant": "G39A G69A A121U G128U", "polymerase ribozyme fitness (log ratio)": -3.24}, {"variant": "A74U C99G U106A", "polymerase ribozyme fitness (log ratio)": -6.33}, {"variant": "C11G A27G C85A U125A", "polymerase ribozyme fitness (log ratio)": -2.01}, {"variant": "C49U G57U C79A", "polymerase ribozyme fitness (log ratio)": -3.24}, {"variant": "C11G C124A", "polymerase ribozyme fitness (log ratio)": 2.13}, {"variant": "C12U C34G C115G", "polymerase ribozyme fitness (log ratio)": -6.11}, {"variant": "C22U G63C U78G U112A", "polymerase ribozyme fitness (log ratio)": -4.23}]}]}
